Laboratory results from patent publication US20200270325A1 (Merck Sharp & Dohme, published 2020).
Numbered stars: 1 amine (or outer) side, 2 acyl side, 3 side chain; on linkers, the order of the positions; unused ones are H or OH. Square brackets hold non-standard residues; d marks the D form. Side chains are listed from the residue outwards. Ends that are not written are not given here. * marks the point of attachment. C18 diacid = O=C(O)CCCCCCCCCCCCCCCCC(=O)*; C16 diacid = O=C(O)CCCCCCCCCCCCCCC(=O)*; γGlu = O=C(O)[C@H](CCC(=O)[*:2])N[*:1]; Met(O2) = CS(=O)(=O)CC[C@H](N)C(=O)O; αMeD = C[C@](N)(CC(=O)O)C(=O)O; αMeS = C[C@](N)(CO)C(=O)O; AEEA = NCCOCCOCC(=O)O; Aib = CC(C)(N)C(=O)O

B1: TP611 (peptide)
peptide: HXQGTFTSDYSKYLDARAAXXFVQWLXXT
modifications: Aib (U) at 2; K(PEG2PEG2γEC18-OH) at 20; αMD at 21; L-methionine sulphone (2) at 27; αMD at 28; C-terminal amide
B2: TP612 (peptide)
peptide: H[Aib]QGTFTSDYSKYL[αMeD]ARAAK([AEEA-AEEA-γGlu-C18 diacid])[αMeD]FVQWL[Met(O2)][αMeD]T-NH2
modifications: N-terminus assumed
SMILES: CC(C)C[C@H](NC(=O)[C@H](Cc1c[nH]c2ccccc12)NC(=O)[C@H](CCC(N)=O)NC(=O)[C@@H](NC(=O)[C@H](Cc1ccccc1)NC(=O)[C@](C)(CC(=O)O)NC(=O)[C@H](CCCCNC(=O)COCCOCCNC(=O)COCCOCCNC(=O)CC[C@H](NC(=O)CCCCCCCCCCCCCCCCC(=O)O)C(=O)O)NC(=O)[C@H](C)NC(=O)[C@H](C)NC(=O)[C@H](CCCNC(=N)N)NC(=O)[C@H](C)NC(=O)[C@](C)(CC(=O)O)NC(=O)[C@H](CC(C)C)NC(=O)[C@H](Cc1ccc(O)cc1)NC(=O)[C@H](CCCCN)NC(=O)[C@H](CO)NC(=O)[C@H](Cc1ccc(O)cc1)NC(=O)[C@H](CC(=O)O)NC(=O)[C@H](CO)NC(=O)[C@@H](NC(=O)[C@H](Cc1ccccc1)NC(=O)[C@@H](NC(=O)CNC(=O)[C@H](CCC(N)=O)NC(=O)C(C)(C)NC(=O)[C@@H](N)Cc1c[nH]cn1)[C@@H](C)O)[C@@H](C)O)C(C)C)C(=O)N[C@@H](CCS(C)(=O)=O)C(=O)N[C@@](C)(CC(=O)O)C(=O)N[C@H](C(N)=O)[C@@H](C)O
B3: TP615 (peptide)
peptide: H[αMeS]QGTFTSDYSKYLDARAAQK([AEEA-AEEA-γGlu-C16 diacid])FVQWL[Met(O2)][αMeD]T-NH2
modifications: N-terminus assumed
SMILES: CC(C)C[C@H](NC(=O)[C@H](Cc1ccc(O)cc1)NC(=O)[C@H](CCCCN)NC(=O)[C@H](CO)NC(=O)[C@H](Cc1ccc(O)cc1)NC(=O)[C@H](CC(=O)O)NC(=O)[C@H](CO)NC(=O)[C@@H](NC(=O)[C@H](Cc1ccccc1)NC(=O)[C@@H](NC(=O)CNC(=O)[C@H](CCC(N)=O)NC(=O)[C@](C)(CO)NC(=O)[C@@H](N)Cc1c[nH]cn1)[C@@H](C)O)[C@@H](C)O)C(=O)N[C@@H](CC(=O)O)C(=O)N[C@@H](C)C(=O)N[C@@H](CCCNC(=N)N)C(=O)N[C@@H](C)C(=O)N[C@@H](C)C(=O)N[C@@H](CCC(N)=O)C(=O)N[C@@H](CCCCNC(=O)COCCOCCNC(=O)COCCOCCNC(=O)CC[C@H](NC(=O)CCCCCCCCCCCCCCC(=O)O)C(=O)O)C(=O)N[C@@H](Cc1ccccc1)C(=O)N[C@H](C(=O)N[C@@H](CCC(N)=O)C(=O)N[C@@H](Cc1c[nH]c2ccccc12)C(=O)N[C@@H](CC(C)C)C(=O)N[C@@H](CCS(C)(=O)=O)C(=O)N[C@@](C)(CC(=O)O)C(=O)N[C@H](C(N)=O)[C@@H](C)O)C(C)C
B4: TP613 (peptide)
peptide: H[Aib]QGTFTSDYSKYLDERAAK([AEEA-AEEA-γGlu-C18 diacid])DFVQWL[Met(O2)][αMeD]T-NH2
modifications: N-terminus assumed
SMILES: CC(C)C[C@H](NC(=O)[C@H](Cc1ccc(O)cc1)NC(=O)[C@H](CCCCN)NC(=O)[C@H](CO)NC(=O)[C@H](Cc1ccc(O)cc1)NC(=O)[C@H](CC(=O)O)NC(=O)[C@H](CO)NC(=O)[C@@H](NC(=O)[C@H](Cc1ccccc1)NC(=O)[C@@H](NC(=O)CNC(=O)[C@H](CCC(N)=O)NC(=O)C(C)(C)NC(=O)[C@@H](N)Cc1c[nH]cn1)[C@@H](C)O)[C@@H](C)O)C(=O)N[C@@H](CC(=O)O)C(=O)N[C@@H](CCC(=O)O)C(=O)N[C@@H](CCCNC(=N)N)C(=O)N[C@@H](C)C(=O)N[C@@H](C)C(=O)N[C@@H](CCCCNC(=O)COCCOCCNC(=O)COCCOCCNC(=O)CC[C@H](NC(=O)CCCCCCCCCCCCCCCCC(=O)O)C(=O)O)C(=O)N[C@@H](CC(=O)O)C(=O)N[C@@H](Cc1ccccc1)C(=O)N[C@H](C(=O)N[C@@H](CCC(N)=O)C(=O)N[C@@H](Cc1c[nH]c2ccccc12)C(=O)N[C@@H](CC(C)C)C(=O)N[C@@H](CCS(C)(=O)=O)C(=O)N[C@@](C)(CC(=O)O)C(=O)N[C@H](C(N)=O)[C@@H](C)O)C(C)C
B5: TP614 (peptide)
peptide: H[αMeS]QGTFTSDYSKYLDARAAK([AEEA-AEEA-γGlu-C16 diacid])DFVQWL[Met(O2)][αMeD]T-NH2
modifications: N-terminus assumed
SMILES: CC(C)C[C@H](NC(=O)[C@H](Cc1ccc(O)cc1)NC(=O)[C@H](CCCCN)NC(=O)[C@H](CO)NC(=O)[C@H](Cc1ccc(O)cc1)NC(=O)[C@H](CC(=O)O)NC(=O)[C@H](CO)NC(=O)[C@@H](NC(=O)[C@H](Cc1ccccc1)NC(=O)[C@@H](NC(=O)CNC(=O)[C@H](CCC(N)=O)NC(=O)[C@](C)(CO)NC(=O)[C@@H](N)Cc1c[nH]cn1)[C@@H](C)O)[C@@H](C)O)C(=O)N[C@@H](CC(=O)O)C(=O)N[C@@H](C)C(=O)N[C@@H](CCCNC(=N)N)C(=O)N[C@@H](C)C(=O)N[C@@H](C)C(=O)N[C@@H](CCCCNC(=O)COCCOCCNC(=O)COCCOCCNC(=O)CC[C@H](NC(=O)CCCCCCCCCCCCCCC(=O)O)C(=O)O)C(=O)N[C@@H](CC(=O)O)C(=O)N[C@@H](Cc1ccccc1)C(=O)N[C@H](C(=O)N[C@@H](CCC(N)=O)C(=O)N[C@@H](Cc1c[nH]c2ccccc12)C(=O)N[C@@H](CC(C)C)C(=O)N[C@@H](CCS(C)(=O)=O)C(=O)N[C@@](C)(CC(=O)O)C(=O)N[C@H](C(N)=O)[C@@H](C)O)C(C)C
B6: TP610 (peptide)
peptide: H[Aib]QGTFTSDYSKYL[αMeD]ARAAK([AEEA-AEEA-γGlu-C18 diacid])DFVQWL[Met(O2)][αMeD]T-NH2
modifications: N-terminus assumed
SMILES: CC(C)C[C@H](NC(=O)[C@H](Cc1c[nH]c2ccccc12)NC(=O)[C@H](CCC(N)=O)NC(=O)[C@@H](NC(=O)[C@H](Cc1ccccc1)NC(=O)[C@H](CC(=O)O)NC(=O)[C@H](CCCCNC(=O)COCCOCCNC(=O)COCCOCCNC(=O)CC[C@H](NC(=O)CCCCCCCCCCCCCCCCC(=O)O)C(=O)O)NC(=O)[C@H](C)NC(=O)[C@H](C)NC(=O)[C@H](CCCNC(=N)N)NC(=O)[C@H](C)NC(=O)[C@](C)(CC(=O)O)NC(=O)[C@H](CC(C)C)NC(=O)[C@H](Cc1ccc(O)cc1)NC(=O)[C@H](CCCCN)NC(=O)[C@H](CO)NC(=O)[C@H](Cc1ccc(O)cc1)NC(=O)[C@H](CC(=O)O)NC(=O)[C@H](CO)NC(=O)[C@@H](NC(=O)[C@H](Cc1ccccc1)NC(=O)[C@@H](NC(=O)CNC(=O)[C@H](CCC(N)=O)NC(=O)C(C)(C)NC(=O)[C@@H](N)Cc1c[nH]cn1)[C@@H](C)O)[C@@H](C)O)C(C)C)C(=O)N[C@@H](CCS(C)(=O)=O)C(=O)N[C@@](C)(CC(=O)O)C(=O)N[C@H](C(N)=O)[C@@H](C)O

biological target: human Glucagon receptor (GCGR) (human, UniProt P47871 26-477); assay: cell-based or functional assay
Sequence (P47871 26-477): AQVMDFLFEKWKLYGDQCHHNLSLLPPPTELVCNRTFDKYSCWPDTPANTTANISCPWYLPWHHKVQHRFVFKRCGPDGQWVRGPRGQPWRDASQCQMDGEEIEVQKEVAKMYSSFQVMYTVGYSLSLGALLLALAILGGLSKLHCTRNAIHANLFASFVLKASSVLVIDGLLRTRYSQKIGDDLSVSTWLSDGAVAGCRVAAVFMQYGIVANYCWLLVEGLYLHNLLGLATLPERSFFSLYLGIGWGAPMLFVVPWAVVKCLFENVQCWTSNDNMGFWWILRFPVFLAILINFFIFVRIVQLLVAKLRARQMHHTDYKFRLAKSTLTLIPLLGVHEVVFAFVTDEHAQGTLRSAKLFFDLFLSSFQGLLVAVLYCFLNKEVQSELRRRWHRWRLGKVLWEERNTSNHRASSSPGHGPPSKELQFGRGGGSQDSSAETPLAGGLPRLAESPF

Point of comparison: B5, “GCGR EC50 human” value 0.86 nM. Against it:
- B1 — 4.3-fold lower, 0.2 nM
- B2 — 2.4-fold higher, 2.04 nM
- B3 — 3.3-fold lower, 0.26 nM
- B4 — higher, > 5 nM
- B6 — 4.5-fold lower, 0.19 nM

biological target: human GLP-1 receptor (GLP1R) (human, UniProt P43220 24-463); assay: cell-based or functional assay

Point of comparison: B4, “GLP1R EC50 human” value 3.34 nM. Against it:
- B1 — higher, > 5 nM
- B2 — within 1.5-fold, 4.95 nM
- B3 — 8.3-fold lower, 0.4 nM
- B5 — 2.4-fold lower, 1.4 nM
- B6 — higher, > 5 nM
